Source: PMC11743138, “Structural basis for the interaction between the Drosophila RTK Sevenless (dROS1) and the GPCR BOSS” (Nature Communications, 2025)

What was measured:
[1] = target: T1, dROS1 (Sevenless) extracellular region construct 2-3 (D. melanogaster, UniProt P13368 440-931); assay: SPR
T1 chain: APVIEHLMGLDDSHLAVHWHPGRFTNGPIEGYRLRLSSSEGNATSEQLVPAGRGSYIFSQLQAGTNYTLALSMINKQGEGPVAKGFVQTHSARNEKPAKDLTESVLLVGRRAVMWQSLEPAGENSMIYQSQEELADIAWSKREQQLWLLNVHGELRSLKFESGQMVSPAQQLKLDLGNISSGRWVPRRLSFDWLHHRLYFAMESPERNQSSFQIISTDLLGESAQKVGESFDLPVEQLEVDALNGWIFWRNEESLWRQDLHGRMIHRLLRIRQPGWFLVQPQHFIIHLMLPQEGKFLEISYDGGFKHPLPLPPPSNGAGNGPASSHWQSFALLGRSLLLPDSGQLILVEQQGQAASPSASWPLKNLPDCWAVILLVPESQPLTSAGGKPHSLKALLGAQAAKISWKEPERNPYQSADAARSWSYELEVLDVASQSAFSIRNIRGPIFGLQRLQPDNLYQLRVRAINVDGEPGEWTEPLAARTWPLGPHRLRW

[2] = target: T2, dROS1 (Sevenless) full extracellular region, construct 1-9 (D. melanogaster, UniProt P13368 126-2113); assay: SPR; BIAcore T200; dROS1 constructs covalently coupled (NHS/EDC) to a CM5 chip, BOSS ECR proteins flowed over at 10 µL/min for 180 s; 20 mM HEPES pH 7.5, 100 mM NaCl; plateau RU against BOSS concentration fitted to a single-site specific binding model; details: both partners purified
T2 construct: Sevenless (dROS1), D. melanogaster, extracellular region with FNIII domains 1 to 9, residues 126-2113; A Factor Xa cut site stands between the N-terminal octa-histidine tag and the protein; Coupled covalently to a CM5 chip in SPR; also called dROS1 1-9; full ECR of dROS1; source: Trichoplusia ni (Hi5) cells, baculovirus, purified from the medium (Ni resin, SEC)

[3] = target: T3, dROS1 (Sevenless) extracellular region construct 1-4, his-tagged (D. melanogaster, UniProt P13368 126-1298); assay: as above; details: both partners purified
T3 construct: Sevenless (dROS1), D. melanogaster, N-terminus of the ECR to the fourth FNIII domain, residues 126-1298; His tag is said to be kept for the HDX-MS experiment (immobilised on Ni resin); Factor Xa cut site after the His tag; also called dROS1 (1-4); N-terminal region of dROS1; source: Trichoplusia ni (Hi5) cells, baculovirus, purified from the medium (Ni resin, SEC); not shown: His8, N-terminal, …
T3 sequence (looked up): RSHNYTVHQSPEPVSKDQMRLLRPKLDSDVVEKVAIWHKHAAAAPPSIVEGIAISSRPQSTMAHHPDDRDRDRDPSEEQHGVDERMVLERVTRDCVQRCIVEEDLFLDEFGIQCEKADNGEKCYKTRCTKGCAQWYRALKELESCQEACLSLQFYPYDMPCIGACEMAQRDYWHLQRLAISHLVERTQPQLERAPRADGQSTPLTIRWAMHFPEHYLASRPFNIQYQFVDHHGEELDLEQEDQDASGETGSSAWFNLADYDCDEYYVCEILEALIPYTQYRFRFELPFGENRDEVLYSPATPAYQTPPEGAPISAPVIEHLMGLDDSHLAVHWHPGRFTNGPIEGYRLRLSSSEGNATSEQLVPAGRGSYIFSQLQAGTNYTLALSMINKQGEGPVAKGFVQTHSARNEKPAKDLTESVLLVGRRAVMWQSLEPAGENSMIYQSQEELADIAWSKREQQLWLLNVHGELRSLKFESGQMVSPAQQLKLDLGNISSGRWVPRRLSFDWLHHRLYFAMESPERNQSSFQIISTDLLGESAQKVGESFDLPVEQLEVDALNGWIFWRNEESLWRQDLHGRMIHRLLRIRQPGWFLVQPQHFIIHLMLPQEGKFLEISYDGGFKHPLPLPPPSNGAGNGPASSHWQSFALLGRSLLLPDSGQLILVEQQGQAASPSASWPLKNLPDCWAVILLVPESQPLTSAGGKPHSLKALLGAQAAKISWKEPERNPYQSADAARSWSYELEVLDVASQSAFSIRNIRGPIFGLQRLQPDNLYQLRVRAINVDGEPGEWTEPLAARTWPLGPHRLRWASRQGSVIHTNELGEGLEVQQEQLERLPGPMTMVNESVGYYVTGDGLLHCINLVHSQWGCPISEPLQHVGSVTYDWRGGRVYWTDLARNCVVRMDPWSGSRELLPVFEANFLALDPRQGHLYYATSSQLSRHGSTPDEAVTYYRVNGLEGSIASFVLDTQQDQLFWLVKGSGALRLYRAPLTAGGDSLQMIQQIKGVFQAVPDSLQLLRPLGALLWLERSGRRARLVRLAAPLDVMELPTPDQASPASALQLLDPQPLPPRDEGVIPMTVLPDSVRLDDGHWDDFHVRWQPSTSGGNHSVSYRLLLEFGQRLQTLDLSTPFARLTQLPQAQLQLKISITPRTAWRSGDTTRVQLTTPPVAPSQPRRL

B1: BOSS (Bride Of Sevenless) extracellular region, His tag cleaved (domain or fragment, D. melanogaster, UniProt P22815 102-510, looked up)
chain: GTTASLVPEICLNGLQLTVNSADEGTVIRKQEEFVKILEGDVVLSVLTKDPDSALFVINRVNQANLIMADFEIGIRAISIDNASLAENLLIQEVQFLQQCTTYSMGIFVDWELYKQLESVIKDLEYNIWPIPGTRAHLFPKVAHLLHQMPWGEKIASVEIATETLEMYNEFMEAARQEHMCLMHFKSDDNVYIMFGNKLASHFKENGTLFSVPTDRTDDEFLADLPNRAFVLMENEIDLSTAVELDATPTALDEILIGKSVLPSRVLSFAGSIIDLMNWLRGSLSKHCKRGEEHDLYVLESCFNFLNFIEDWRTSEYRQAHDTAEILSLLLMRKLGTAMNFQMYQKKVLTLDKITGESRTELREIASQNFVTNVTTYYHYNRDNHTSLELKTKFGQVFNCQYSAGDNRR
notes: Bride of sevenless (BOSS), D. melanogaster, extracellular region, residues 102-510; also called BOSS ECR; BOSSWT; source: Trichoplusia ni (Hi5) cells, baculovirus, purified from the medium (Ni resin, SEC; Factor Xa cleavage, Ni flow-through, SEC); not shown: His8, N-terminal, cleaved
[1]
  Kd: 5 µM
[2]
  Kd: 4.4 µM
[3]
  Kd: 3 to 5 µM
